Assay results from paper PMC3989777 (Cell Reports, 2014).
Values belong to the molecule of their own block, whether it stands above or below them. Where a SMILES comes first, the peptide text is derived from it. Where no end group is shown, it is not given here. [ ]: non-standard residue; d: D form. pS = N[C@@H](COP(=O)(O)O)C(=O)O

Tests used:
PIH1D1 (1-180) = PIH1D1 (1-180) (Homo sapiens, UniProt Q9NWS0); assay: ITC of phosphopeptide binding to PIH1D1 1-180
PIH1D1 1–180 = PIH1D1 1–180 (human, UniProt Q9NWS0 1-180); assay: ITC
PIH1D1 1–180, sequence (Q9NWS0 1-180): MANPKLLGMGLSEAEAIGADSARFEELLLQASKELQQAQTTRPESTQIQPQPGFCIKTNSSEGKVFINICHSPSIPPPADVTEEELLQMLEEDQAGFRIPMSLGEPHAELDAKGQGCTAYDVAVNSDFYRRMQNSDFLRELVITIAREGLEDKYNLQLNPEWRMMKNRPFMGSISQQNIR

PIH1D1 (1-180), sequence (Q9NWS0 1-180): as above

higher affinity relative to the TEL2 peptide phosphorylated on Ser491 (PIH1D1 (1-180)): 2- to 3 fold
Molecule: CC(C)C[C@H](NC(=O)[C@H](CC(=O)O)NC(=O)[C@H](COP(=O)(O)O)NC(=O)[C@H](CC(=O)O)NC(=O)[C@H](CO)NC(=O)CNC(=O)[C@H](C)NC(=O)[C@@H](N)Cc1ccc(O)cc1)C(=O)N[C@@H](CC(=O)O)C(=O)N[C@@H](COP(=O)(O)O)C(=O)N[C@@H](CC(=O)O)C(=O)N[C@@H](CC(=O)O)C(=O)N[C@@H](CCC(=O)O)C(=O)N[C@@H](Cc1ccccc1)C(=O)N[C@H](C(=O)N1CCC[C@H]1C(=O)N[C@@H](Cc1ccc(O)cc1)C(N)=O)C(C)C (H-YAGSD[pS]DLD[pS]DDEFVPY-NH2)

Kd (PIH1D1 1–180): 16 µM
B1: ECD peptide RPNESDpS505DDLDDY (peptide)
peptide: RPNESD[pS]DDLDDY

Kd (PIH1D1 1–180): 3.5 µM
B2: TEL2 peptide phosphorylated on Ser491 (peptide)
chain: YAGSDSDLD[pS]DDEFVPY
modifications: also: phosphoserine at Ser491, place not mappable
